Experimental data reported in US20240409645A1 (published 2024).

T1: human IL-2 receptor IL-2Rα/IL-2Rβ/γc on HEK-Blue IL-2 cells (UniProt P01589 22-272; P14784 27-551; P31785 23-369)
T1 chain 1: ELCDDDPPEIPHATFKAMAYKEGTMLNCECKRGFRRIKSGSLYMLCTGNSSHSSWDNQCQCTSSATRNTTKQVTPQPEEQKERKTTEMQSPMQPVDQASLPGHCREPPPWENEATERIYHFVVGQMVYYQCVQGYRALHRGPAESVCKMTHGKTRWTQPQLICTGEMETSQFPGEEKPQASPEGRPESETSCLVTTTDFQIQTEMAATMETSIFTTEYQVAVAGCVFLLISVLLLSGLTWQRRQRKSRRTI
T1 chain 2: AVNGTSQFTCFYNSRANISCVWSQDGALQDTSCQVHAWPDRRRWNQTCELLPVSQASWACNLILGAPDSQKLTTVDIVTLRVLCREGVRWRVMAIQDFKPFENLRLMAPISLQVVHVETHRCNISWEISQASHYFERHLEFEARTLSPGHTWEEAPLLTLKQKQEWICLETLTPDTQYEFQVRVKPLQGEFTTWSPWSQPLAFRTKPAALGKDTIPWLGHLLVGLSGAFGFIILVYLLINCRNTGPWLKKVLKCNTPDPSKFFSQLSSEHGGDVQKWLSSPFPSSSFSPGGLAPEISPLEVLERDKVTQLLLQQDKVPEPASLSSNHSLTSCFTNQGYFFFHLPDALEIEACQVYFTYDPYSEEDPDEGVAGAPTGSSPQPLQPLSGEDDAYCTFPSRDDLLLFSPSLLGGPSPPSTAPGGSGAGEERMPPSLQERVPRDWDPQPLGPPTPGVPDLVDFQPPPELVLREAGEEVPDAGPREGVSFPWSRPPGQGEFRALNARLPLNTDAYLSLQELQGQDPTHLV
T1 chain 3: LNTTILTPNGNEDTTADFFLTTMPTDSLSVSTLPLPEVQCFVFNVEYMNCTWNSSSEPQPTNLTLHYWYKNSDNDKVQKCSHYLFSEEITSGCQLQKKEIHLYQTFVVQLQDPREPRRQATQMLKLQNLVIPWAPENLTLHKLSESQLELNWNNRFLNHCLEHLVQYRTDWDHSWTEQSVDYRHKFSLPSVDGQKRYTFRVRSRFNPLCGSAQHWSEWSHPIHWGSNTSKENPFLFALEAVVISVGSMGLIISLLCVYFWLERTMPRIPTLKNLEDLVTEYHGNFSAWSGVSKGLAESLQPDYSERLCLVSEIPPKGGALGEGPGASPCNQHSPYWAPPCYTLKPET


Target: T1, human IL-2 receptor IL-2Rα/IL-2Rβ/γc on …
Assay: FACS cell binding; monovalent

Binder | EC50 [nM]
5-MP01F05 VHH-hFc, monospecific monovalent (Fc fusion) VHH: EVQLVESGGGLVQAGGSLRLSCAASIRAFTTWSMAWFRQAPGKEREYVARINVSGSVTYYADFVKGRFTISRDNAKKTMYLEMNNLKPEDTALYYCAADRTGVGTNDYNYWGQGTQVTVSS | 9.2
12-MP05B12 VHH-hFc, monospecific monovalent (Fc fusion) VHH: QVQLVESGGGLVQAGGSLRLSCAASGFTFDGYAIGWFRQAPGKEREGVSYITGSDGSTYYADSVKGRFTISSNNAKNTVYLHMNSLKPDDAAVYYCAIDRLGSRGAYVPIWWRSSDMDLWGKGTLVTVSS | 8.5
1-MP01H01 VHH-hFc, monospecific monovalent (Fc fusion) VHH: EVQLVESGGGLVQAGGSLRLSCAASGRTFRTHNMGWFRRAPGKEREFVAAISWNVDNTLYADSVKGRFTISRDNGRNMVYLQMNSLKPEDTAVYYCAADNIPLSSDVAATATEYDYWGQGTQVTVSS | 135
4-MP01F04 VHH-hFc, monospecific monovalent (Fc fusion) VHH: QVQLVESGGGLVQAGGSLRLSCAASGGTFRTRNMGWFRRAPGKEREFVAAVSWNVDNKLYADSVKGRFTISRDNGRNMVYLQMNSLKPEDTAVYYCAADNIPLSSDMRPTATEYDYWGQGTQVTVSS | 2.2
8-MP01C12 VHH-hFc, monospecific monovalent (Fc fusion) VHH: QVQLVESGGGLVQPGGSLRLSCATSGFTFSNNFMSWVRQAPGKGLEFVSTISYGGESTTYAEAVKGRFTISRDNAKNTLYLQMNNLKPEDTAIYYCAKATSYTSIRGAPRGQGTQVTVSS | 2.7
13-MP05E12 (antibody, V domains shown) VH: QVQLQESGGGLVQAGDSLRLSCAASGFNFGWHAMGWFRQAPGKEREFVATITWTGRDTYYADSVRGRFTISKDNAKDTLFLQMNSLRPDDTGVYYCAKARERATWAYSEDDCDYWGQGTQVTVSS | 3.2
11-MP05H04 VHH-hFc, monospecific monovalent (Fc fusion) VHH: QLQLVESGGGLVQAGGSLRLSCAASGLTFEGYAIGWFRQAPGKEREGVSYITGSDGTTYYINSVKGRFTISSDNAKSTVYLQMNTLKPEDTAVYYCAVDRLGSQGRYASAWWRSGDMDLWGKGTQVTVSS | 5.9
3-MP01E03 VHH-hFc, monospecific monovalent (Fc fusion) VHH: QVQLVESGGGLVQAGGSLRLSCTASGRTLSSYSMAWFRQAADKGREFVTAISSSGVVTHVLDSVKGRFTISRDNAKNTVYLQMNSLQPEDTALYFCAGTASSYSTYEANYNYWGQGTLVTVSS | 3.3
7-MP01G08 VHH-hFc, monospecific monovalent (Fc fusion) VHH: EVQLVESGGGLVQAGGSLRLSCAASGRAFSMYNMGWFRQAPGKEREFVAATGWSGANTPYADSVKGRFTISRDNTQNTVYLQMNSLKPEDTATYYCAADSIRLRSDVTRIPLEYDYWGQGTQVTVSS | 4.7
6-MP01G05 VHH-hFc, monospecific monovalent (Fc fusion) VHH: QVQLQESGGGLVQAGGSLRLSCAASGRTFSSYAMGWFRQAPGKEREFVAVISWNVDNTEYTDSVKGRFTISRDNDKNMVYLQMNSLKPEDTAVYYCAADSIPLSSDMSPTATEYGYWGQGTQVTVSS | 5.6
10-MP05F03 VHH-hFc, monospecific monovalent (Fc fusion) VHH: QVQLVESGGGLVQAGGSLRLSCAASGIPFDNYAMGWFRQAPGKEREFVAARDLEGIITRYGDSVKGRFTISRGNAKNTVFLQMNSLKPEDTAVYYCAARDGGVVAGSRSSAQYNYWGQGTQVTVSS | 2
